This assay deals with VRC01. The assay is described as follows: FACS; competition with YU2 gp120dsm for 3 nM VRC01. A general note: Flow cytometry measures light scatter and fluorescence of single cells or particles in a stream.

In paper PMC6193675 one finds Ki data, which are given here for 1 substance.

As a reminder, the Ki is the dissociation constant of the complex between target and ligand, obtained from inhibition or displacement. Read a high Ki as lower affinity.

In turn, Bal gp120 returned a Ki of 5 nM.
